From US20260374883 (published 2026)
Positions count from the first letter of the chain named.

T1: rat CX3CR1 (rat, UniProt P35411)
T1 chain: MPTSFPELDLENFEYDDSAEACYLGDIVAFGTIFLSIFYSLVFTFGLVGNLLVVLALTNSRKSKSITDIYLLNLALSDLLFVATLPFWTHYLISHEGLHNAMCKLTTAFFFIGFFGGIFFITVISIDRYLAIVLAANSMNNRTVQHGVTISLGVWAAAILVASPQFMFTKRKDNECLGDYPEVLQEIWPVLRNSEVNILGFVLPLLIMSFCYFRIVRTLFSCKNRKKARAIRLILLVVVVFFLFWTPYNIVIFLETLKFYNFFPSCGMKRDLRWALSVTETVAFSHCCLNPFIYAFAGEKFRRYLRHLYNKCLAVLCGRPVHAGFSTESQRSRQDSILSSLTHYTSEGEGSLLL

T2: mouse CX3CR1 (mouse, UniProt Q9Z0D9)
T2 chain: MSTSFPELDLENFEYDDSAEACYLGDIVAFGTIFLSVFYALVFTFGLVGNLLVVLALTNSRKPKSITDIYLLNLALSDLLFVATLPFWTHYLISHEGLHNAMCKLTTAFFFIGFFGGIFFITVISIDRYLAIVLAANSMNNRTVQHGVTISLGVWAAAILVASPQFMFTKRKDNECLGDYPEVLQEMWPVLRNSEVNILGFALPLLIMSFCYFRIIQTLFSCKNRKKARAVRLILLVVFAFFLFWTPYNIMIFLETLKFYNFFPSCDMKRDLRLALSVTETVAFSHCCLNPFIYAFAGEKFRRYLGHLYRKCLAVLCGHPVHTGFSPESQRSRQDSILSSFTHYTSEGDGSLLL

B1: m1F8-2 (antibody, V domains shown)
VH: QVQLQQSGAELARPGASVKLSCKASGFTFTNYWMQWIKQRPGQGLEWIGAIYPGSGESRYTRKFKGKATLTADKSSSTAYMQLNSLASEDSAVYYCARWAGYSRNAAYWGQGTLVTVSA
VL: DVLMTQTPLSLPVSLGDQASISCRSRQSIVHSSGNTYLEWYLQKPGQSPKLLIYKVSNRFSGVPDRFSGSGSGTDFTLKISRVEAEDLGVYYCFQGSHIPPTFGGGTKLEIK
B2: m1F8-1 (antibody, V domains shown)
VH: B1 VH
VL: B1 VL with R26S

What was measured:
[1] = biological target: T1, rat CX3CR1; assay: FACS
[2] = biological target: T2, mouse CX3CR1; assay: FACS

| Binder | binding result [1] | binding result [2] |
| --- | --- | --- |
| B1 | no binding | no binding |
| B2 | no binding | no binding |
